Measured values published in patent publication US20240043552A1 (Eli Lilly, published 2024).
Residue numbers refer to the chain shown, from its start. In names and notes the source's numbering stands.

B1: Pertuzumab × Matuzumab IgG BsAb, CH1/Cκ Wild-Type (AB / H4DR variable domain designs, 7.8.60 CH3, N297Q) (bispecific antibody)
heavy 1: EVQLVESGGGLVQPGGSLRLSCAASGFTFTDYTMDWVRKAPGKGLEWVADVNPNSGGSIYNQEFKGRFTLSVDRSKNTLYLQMNSLRAEDTAVYYCARNLGPSFYFDYWGQGTLVTVSSASTKGPSVFPLAPSSKSTSGGTAALGCLVKDYFPEPVTVSWNSGALTSGVHTFPAVLQSSGLYSLSSVVTVPSSSLGTQTYICNVNHKPSNTKVDKKVEPKSCDKTHTCPPCPAPELLGGPSVFLFPPKPKDTLMISRTPEVTCVVVDVSHEDPEVKFNWYVDGVEVHNAKTKPREEQYQSTYRVVSVLTVLHQDWLNGKEYKCKVSNKALPAPIEKTISKAKGQPREPQVYTLPPSREEMTDNQVSLTCLVKGFYPSDIAVEWESNGQPENNYKTTPPVLMSDGSFFLASKLTVDKSRWQQGNVFSCSVMHEALHNHYTQKSLSLSPG
light 1: RIQMTQSPSSLSASVGDRVTITCKASQDVSIGVAWYQDKPGKAPKLLIYSASYRYTGVPSRFSGSGSGTDFTLTISSLQPEDFATYYCQQYYIYPYTFGQGTKVEIKRTVAAPSVFIFPPSDEQLKSGTASVVCLLNNFYPREAKVQWKVDNALQSGNSQESVTEQDSKDSTYSLSSTLTLSKADYEKHKVYACEVTHQGLSSPVTKSFNRGEC
heavy 2: QVQLVQSGAEVKKPGASVKVSCKASGYTFTSHWMHWVRYAPGQGLEWIGEFNPSNGRTNYNEKFKSKATMTVDTSTNTAYMELSSLRSEDTAVYYCASRDYDYDGRYFDYWGRGTLVTVSSASTKGPSVFPLAPSSKSTSGGTAALGCLVKDYFPEPVTVSWNSGALTSGVHTFPAVLQSSGLYSLSSVVTVPSSSLGTQTYICNVNHKPSNTKVDKKVEPKSCDKTHTCPPCPAPELLGGPSVFLFPPKPKDTLMISRTPEVTCVVVDVSHEDPEVKFNWYVDGVEVHNAKTKPREEQYQSTYRVVSVLTVLHQDWLNGKEYKCKVSNKALPAPIEKTISKAKGQPRRPRVYTLPPSREEMTKNQVSLVCLVKGFYPSDIAVEWESNGQPENNYKTTPPVLDSDGSFFLYSVLTVDKSRWQQGNVFSCSVMHEALHNHYTQKSLSLSPG
light 2: DIQMTQSPSSLSASVGDRVTITCSASSSVTYMYWYQRKPGDAPKLLIYDTSNLASGVPSRFSGSGSGTDYTFTISSLQPEDIATYYCQQWSSHIFTFGQGTKVEIKRTVAAPSVFIFPPSDEQLKSGTASVVCLLNNFYPREAKVQWKVDNALQSGNSQESVTEQDSKDSTYSLSSTLTLSKADYEKHKVYACEVTHQGLSSPVTKSFNRGEC
notes: Human IgG1; also called Pertuzumab × Matuzumab Wild-Type
B2: Pertuzumab × Matuzumab IgG BsAb, CH1/Cκ design 14.3.1.1 (bispecific antibody)
heavy 1: B1 heavy 1 with K149A, S185A
light 1: B1 light 1 with S131R, S176I
heavy 2: B1 heavy 2 with K217E
light 2: B1 light 2 with E122K
notes: Human IgG1; also called Pertuzumab × Matuzumab 14.3.1.1
B3: Pertuzumab × Matuzumab IgG BsAb, CH1/Cκ design 14.1.2 (bispecific antibody)
heavy 1: B1 heavy 1 with K149A, K215E
light 1: B1 light 1 with E123K, S131R
heavy 2: B1 heavy 2
light 2: B1 light 2
notes: Human IgG1; also called Pertuzumab × Matuzumab 14.1.2
B4: Pertuzumab × Matuzumab IgG BsAb, CH1/Cκ design 14.3.1.2 (bispecific antibody)
heavy 1: B1 heavy 1 with K149A, S185G
light 1: B1 light 1 with S131R, S176I
heavy 2: B1 heavy 2 with K217E
light 2: B1 light 2 with E122K
notes: Human IgG1; also called Pertuzumab × Matuzumab 14.3.1.2

What was measured:
[1] = target: T1, hHGFR(cMet)-Fc (human, UniProt P08581 25-932); assay: sandwich ELISA with mis-matched antigens
T1 construct: Bought (R&D systems); Coated on the plate; not shown: Fc of the bought fusion protein
T1 sequence (P08581 25-932): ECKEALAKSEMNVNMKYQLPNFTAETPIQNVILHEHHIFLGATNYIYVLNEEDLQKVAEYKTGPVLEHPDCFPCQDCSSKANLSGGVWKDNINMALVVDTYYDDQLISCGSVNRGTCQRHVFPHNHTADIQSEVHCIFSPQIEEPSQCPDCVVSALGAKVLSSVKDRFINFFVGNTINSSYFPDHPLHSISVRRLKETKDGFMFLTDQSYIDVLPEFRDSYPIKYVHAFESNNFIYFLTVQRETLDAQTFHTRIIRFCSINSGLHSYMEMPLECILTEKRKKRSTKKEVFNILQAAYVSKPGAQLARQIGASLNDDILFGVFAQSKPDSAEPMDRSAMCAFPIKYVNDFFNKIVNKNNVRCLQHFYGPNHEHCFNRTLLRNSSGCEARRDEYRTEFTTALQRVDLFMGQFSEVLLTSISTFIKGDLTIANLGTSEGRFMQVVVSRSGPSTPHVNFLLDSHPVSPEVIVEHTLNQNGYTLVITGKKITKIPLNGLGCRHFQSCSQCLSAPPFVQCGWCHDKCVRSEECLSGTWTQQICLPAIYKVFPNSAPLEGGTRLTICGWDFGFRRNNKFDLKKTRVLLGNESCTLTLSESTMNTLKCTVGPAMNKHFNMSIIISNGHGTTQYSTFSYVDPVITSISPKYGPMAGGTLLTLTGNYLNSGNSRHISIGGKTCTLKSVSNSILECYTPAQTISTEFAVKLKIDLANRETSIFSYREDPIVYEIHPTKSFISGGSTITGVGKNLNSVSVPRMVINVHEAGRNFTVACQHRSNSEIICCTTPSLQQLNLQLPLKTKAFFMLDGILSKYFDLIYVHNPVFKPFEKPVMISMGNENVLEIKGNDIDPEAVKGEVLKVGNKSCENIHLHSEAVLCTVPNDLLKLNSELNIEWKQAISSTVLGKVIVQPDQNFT
Method: (§1) The dual-binding activity of the same synthesized IgG BsAbs is assessed using a sandwich ELISA. […] Sandwich ELISAs are developed for detecting the four different BsAb test articles; one for detecting anti-HER-2/anti-EGFR BsAb activity, one for detecting anti-HER-2/anti-LTPR BsAb activity, one for detecting anti-cMET/anti-EGFR BsAb activity and one for detecting anti-cMET/anti-LTPR BsAb activity. For all ELISAs, clear 96-well round bottom high binding Immulon microtiter plates (Greiner bio-one, cat #650061) are coated overnight at 2-8° C. with 50 μL/well 1 μg/mL hHER-2-Fc or 1 μg/mL hHGFR(cMet)-Fc (both from R&D systems) in a 50 mM Na2CO3 pH 8.3 buffer. The plates are washed 4 times with PBST and blocked with 200 μL/well casein buffer (Pierce) for 1 hr at room temperature. The plates are then washed 4 times with PBST and the parental IgG controls or BsAb IgG test articles are added at 50 μL/well and […] and serially diluted 1:3 down the plate. The controls and test articles are incubated on the plate for 1 hr at room temperature. The plates are then washed 4 times with PBST and 50 μL/well 1 μg/mL hEGFR-Fc-biotin or hLTβR-Fc-biotin (both from R&D systems) is added for 1 hr at room temperature. The plates are then washed 4 times with PBST followed by the addition of a 50 μL/well streptavidin-AP (Jackson Immunoresearch Labs Cat. #016-050-084) diluted 1:1000 in casein buffer. The streptavidin-AP is incubated in each well for 1 hr at room temperature. The plates are then washed 4 times with PBST and 100 μL/well 1-step PNPP substrate is added (Thermo Scientific Cat. #37621). After approximately 5-15 minutes, plates are read for Absorbance (405 nm) using a SPECTRAMAX® UV plate reader (Molecular Devices). Biotin-labeling of the hEGFR-Fc and hLTβR-Fc proteins is performed using EZ-LINK™ Sulfo-NHS-LC-Biotin (Thermo Scientific Cat. #21327) according to the manufacturer's protocol.

[2] = target: T2, hLTβR-Fc-biotin (human, UniProt P36941 28-227, limits assumed, biotin-labelled with EZ-LINK Sulfo-NHS-LC-Biotin); assay: sandwich ELISA with mis-matched antigens
T2 construct: Bought (R&D systems); Detection antigen of the sandwich; also called LTPR (as printed once); not shown: Fc of the bought fusion protein
T2 sequence (P36941 28-227 limits assumed): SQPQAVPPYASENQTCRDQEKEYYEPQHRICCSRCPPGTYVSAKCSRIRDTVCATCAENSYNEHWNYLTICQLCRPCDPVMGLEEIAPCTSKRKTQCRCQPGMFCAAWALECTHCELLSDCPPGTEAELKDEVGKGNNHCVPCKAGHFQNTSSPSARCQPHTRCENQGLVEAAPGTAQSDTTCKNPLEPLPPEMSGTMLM
Method: as §1

Binder | binding result [1] | binding result [2]
B1 | no binding | no binding
B2 | no binding | no binding
B3 | no binding | no binding
B4 | no binding | no binding
